Numbering of substitutions follows the chain as printed.
B1: C032 (antibody, V domains shown)
VH: EVQLVQSGAEVKKPGESLKISCKGSGYSFTSYWIGWVRQMPGKGLEWMGIIYPGDSDTRYSPSFQGQVTISADKSISTAYLQWSSLKASDTAMYYCARGVAVDWYFDLWGRGTLVTVSS
VL: QSVLTQPPSVSGAPGQRVTISCTGSSSNIGAGYDVHWYQQLPGTAPKLLIYGNSNRPSGVPDRFSGSKSGTSASLAITGLQAEDEADYYCQSYDSSLSALYVFGTGTKVTVL
B2: C037 (antibody, V domains shown)
VH: QLVQSGPEVKKPGTSVKVSCKASGFTFTSSAMQWVRQARGQRLEWIGWIVVGSGNTNYAQKFQERVTITRDMSTSTAYMELSSLRSEDTAVYYCAAPYCSGGSCNDAFDIWGQGTMVTVSS
VL: not shown
B3: C119 (antibody, V domains shown)
VH: QVQLVQSGAEVKKPGASVKVSCKASGYTFTSYYMHWVRQAPGQGLEWMGIINPSGGSTSYAQKLQGRVTMTRDTSTSTVYMELSSLRSEDTAVYYCARANHETTMDTYYYYYYMDVWGKGTTVTVSS
VL: QSALTQPASVSGSPGQSITISCTGTSSDVGGYKYVSWYQRHPGKAPKLMIYDVSNRPSGVSNRFSGSKSGNTASLTISGLQAEDEADYYCSSYTSSSTSVVFGGGTQLTVL
B4: C152 (antibody, V domains shown)
VH: QVQLVQSGAEVKKPGASVKVSCKASGYTFTSYGISWVRQAPGQGLEWMGWISAYNGNTNYAQKLQGRVTMTTDTSTSTAYMELRSLRSDDTAVFYCARDRGGHDFWSGYGFYYYYGMDVWGQGTTVTVSS
VL: DIQMTQSPSSLSASVGDRVTITCRASQGISNYLAWYQQRPGKVPKLLIFAASTLQSGVPSRFSGSGSGTDFTLTISSLQPEDVATYYCQKYNSAPRTFGQGTKVEIK
B5: C153 (antibody, V domains shown)
VH: EVQLVESGGGLIQPGGSLRLSCAASGFTVSSNYMSWVRQAPGKGLEWVSVIYSGYSTYYVDSVKGRFTISRDNSKNTLYLQMNSLRAEDTAVYYCARVGGAHSGYDGSFDYWGQGTLVTVSS
VL: QSALTQPASVSGSPGQSITISCTGTSSDVGSYNLVSWYQQHPGKAPKLMIYEGSKRPSGVSNRFSGSKSGNTASLTISGLQAEDEADYYCCSYAGSSTWVFGGGTKLTVL
B6: C010 (antibody, V domains shown)
VH: EVQLVESGGGVVQPGRSLRLSCAASGFTFSSYAMHWVRQAPAKGLEWVAVILYDGSGKYYADSVKGRFTISRDNSKNTLYLQMNSLRAEDTAVYYCARDGIVDTALVTWFDYWGQGTLVTVSS
VL: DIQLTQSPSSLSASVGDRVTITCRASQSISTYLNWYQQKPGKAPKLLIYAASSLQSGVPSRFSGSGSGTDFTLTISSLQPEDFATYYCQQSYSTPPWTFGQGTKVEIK
B7: C101 (antibody, V domains shown)
VH: QVQLVESGGGLIQPGGSLRLSCAASGFIVSSNYMSWVRQAPGKGLEWVSVIYSGGSTFYTDSVKGRFTISRDNSKNTLYLQMNSLRAEDTAVYYCVRDYGDFYFDYWGQGTLVTVSS
VL: EIVLTQSPGTLSLSPGERATLSCRASQSVSSSYLAWYQQKPGQAPRLLIYGASSRATGIPDRFSGGGSETDFTLTISRLEPEDCAVYYCQQYGSSPRTFGQGTKVEIK
B8: C102 (antibody, V domains shown)
VH: B7 VH with T60A, V96A, F102Y
VL: not shown
B9: C212 (antibody, V domains shown)
VH: QVQLVQSGAEVKKPGASVKVSCKASGYTVTGYYIHWVRQAPGQGLEWMGWISPNSGGTNYAQKFQGWVTMTRDMSITTAYMELSRLRSDDTAVYYCARERYFDLGGMDVWGQGTTVTVSS
VL: LTQPASVSGSPGQSITISCTGTSSDVGSYNLVSWYQQHPGKAPKLMIYEDSKRPSGVSNRFSGSKSGNTASLTISGLQAEDEADYYCCSYAGSSTRLFGGGTKLTVL
B10: C160 (antibody, V domains shown)
VH: QVQLVQSGAEVKKPGASVKVSCKASGYTFTSYGISWVRQAPGQGLEWMGWISAYNGNTNYAQKLQGRVTMTTDTSTSTAYMELRSLRSDDTAVYYCARVPASYGDDDYYYYYGMDVWGQGTTVTVSS
VL: SYELTQPPSVSVSPGQTARITCSGDALPKQYAYWYQQKPGQAPVLVIYKDSERPSGIPERFSGSSSGTTVTLTISGVQAEDEADYYCQSADSSGTLWVFGGGTKLTVL
B11: C038 (antibody, V domains shown)
VH: VQLVESGGGVVQPGRSLRLSCAASGFTFNRIAMYWVRQAPGKGLEWVAVISFDGSYEYYAESVKGRFAISRDNSKNTLYLQMNSLRAEDTAVYYCAKSPMGYCTNGVCYPDSWGQGTLVTVSS
VL: NFMLTQPHSVSESPGKTVTISCTGSSGSIASNYVQWYQQRPGSAPTTVIYEDTQRPSGVPDRFSGSIDSSSNSASLTISGLKTEDEADYYCQSYDINSRWVFGGGTKLTVL
B12: C144 (antibody, V domains shown)
VH: EVQLVESGGGLIQPGGSLRLSCAASGFTVSNNYMSWVRQAPGKGLEWVSVIYSGGSTYYADSVKGRFTISRDKSKNTLYLQMNRLRAEDTAVYYCAREGEVEGYNDFWSGYSRDRYYFDYWGQGTLVTVSS
VL: QSALTQPASVSGSPGQSITISCTGTSSDVGGYNYVSWYQQHPGKAPKLMIYDVSNRPSGVSNRFSGSKSGNTASLTISGLQAEDEADYYCSSYTSSSTRVFGTGTKVTVL
B13: C112 (antibody, V domains shown)
VH: QVQLVESGGGVVQPGRSLRLSCAASGFTFSSHAMHWVRQAPGKGLEWVAVISYDGSNKYYADSVKGRFTISRDNSKNTLYLQMNSLRAEDTAVYYCAREDYYDSSGSFDYWGQGTLVTVSS
VL: B12 VL with R99W, T103G, V107L
B14: C135 (antibody, V domains shown)
VH: QVQLVESGGGVVQPGRSLRLSCAASGFTFSSYAMHWVRQAPGKGLEWVAVIPFDGRNKYYADSVTGRFTISRDNSKNTLYLQMNSLRAEDTAVYYCASSSGYLFHSDYWGQGTLVTVSS
VL: DIQMTQSPSTLSASVGDRVTITCRASQSISNWLAWFQQKPGKAPKLLIYEASSLESGVPSRFSGSGSGTEFTLTISSLQPDDFATYYCQQYNSYPWTFGQGTKVEIK
B15: C106 (antibody, V domains shown)
VH: QLQLQESGPGLVKPSETLSLTCTVSGASVSSGSYYWSWIRQPPGKGLEWIGYIYYSGSTNYNPSLKSRVTISVDTSKNQFSLKLSSVTAADTAVYYCARERPGGTYSNTWYTPTDTNWFDTWGQGTLVTVSS
VL: SYELTQPPSVSVAPGKTARITCGGNNIGSKSVHWYQQKPGQAPVLVIYFDSDRPSGIPERFSGSNSGNTATLTISRVEAGDEADYYCQVWDSSRDHVVFGGGTKLTVL
B16: C040 (antibody, V domains shown)
VH: not shown
VL: B15 VL with K16Q, I47V, F49D, R94S, H96Q, V97G
B17: C129 (antibody, V domains shown)
VH: QVQLVESGGGVVQPGRSLRLSCAASGFTFSSYGMNWVRQAPGKGLEWVAVISYDGSNTYYTDSVKGRFTISRDNSKNTLYLQMNSLRVDDTATYYCAKGPRFGWSYRGGSGFDIWGQGTMVTVSS
VL: DIQMTQSPSSLSASVGDRVTITCQASQDISNYLNWYQQKPGKAPKLLIYDASNLETGVPSRFSGSESGTDFTFTISSLQPEDIATYYCQQYDNLPITFGQGTRLEIK
B18: C163 (antibody, V domains shown)
VH: QVQLQQWGAGLLKPSETLSLTCAVSGGSLSGFYWTWIRQPPGKGLEWIGETNHFGSTDYKPSLKSRVTISVDMSRNQFSLKVTSVTAADTAVYYCARKPLLHSDLSPGAFDIWGQGTMVTVSS
VL: EIVLTQSPGTLSLSPGERATLSCRASQTVSANYLAWYQQKAGQAPRLLIYGASKRATGIPDRFSGSGSGTDFTLSISRLEPEDFAVYYCQQYVTTPRTFGGGTKVEI
B19: C161 (antibody, V domains shown)
VH: B18 VH with K81I, V82M, P99T, H102F, L105F
VL: B18 VL with V29L, S30T, A41P, V93G
B20: C162 (antibody, V domains shown)
VH: B18 VH with P61A, D72G, V85L, H102Y, L105F, I112V
VL: B18 VL with V29L, S30T, A41P, T57A, S77T, V93H
B21: C149 (antibody, V domains shown)
VH: QVQLVESGGGVVQPGRSLRLSCAASGFTFSTYGMHWVRQAPGKGLEWVAVISYDGSNKYFADSVKGRFTISRDNSKNTLYLQMNSLRPEDTAVYYCAKVGMEYSSGWYGEEIDFWGQGTLVTVSS
VL: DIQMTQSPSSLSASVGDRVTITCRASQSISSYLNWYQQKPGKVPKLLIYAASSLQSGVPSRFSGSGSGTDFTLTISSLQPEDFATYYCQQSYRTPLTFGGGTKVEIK
B22: C146 (antibody, V domains shown)
VH: EVQLVESGGGLVKPGGSLRLSCAASGLTFTAYRMNWVRQAPGKGLEWLSSISNTNGDIYYADSVKGRFTISRDNAKNSLYLQMNSLRADDTAVYYCARDVASNYAYFDLWGQGTLVTVSS
VL: QSALTQPASVSGSPGQSITISCTGTSSDIGVYNYISWSQQHPGKAPKVMIYDVTNRPSGVSNRFSGSKSGNTASLTISGLQAEDEADYYCSSYRGSSTPYVFGTGTKVTVL
B23: C036 (antibody, V domains shown)
VH: QVQLQQWGAGLLKPSETLSRTCAVFGGSFTNYYWSWIRQSPGKGLEWIGEINDSGITNYNPSLKSRVTISVDTSKNQFSLSLRSVTAADTAVYYCARRRSFSRPSSIDYWGQGTLVTVSS
VL: not shown

How the values were obtained:
SARS-CoV-2 RBD = SARS-CoV-2 RBD (SARS-CoV-2, UniProt P0DTC2); experiment: ELISA
SARS-CoV RBD = SARS-CoV RBD (SARS-CoV, UniProt P59594); experiment: ELISA

Row | Binder | EC50 (SARS-CoV-2 RBD) | EC50 (SARS-CoV RBD)
1 | B1 | 99.3 ng/mL | –
2 | B2 | 1.93 ng/mL | –
3 | B3 | 3.57 ng/mL | > 1 µg/mL
4 | B4 | 1.88 ng/mL | –
5 | B5 | 3.17 ng/mL | > 1 µg/mL
6 | B6 | 5.44 ng/mL | > 1 µg/mL
7 | B7 | 1.51 ng/mL | > 1 µg/mL
8 | B8 | 4.54 ng/mL | > 1 µg/mL
9 | B9 | > 1000 ng/mL | > 1 µg/mL
10 | B10 | 2.54 ng/mL | –
11 | B11 | 4.69 ng/mL | –
12 | B12 | 3.24 ng/mL | > 1 µg/mL
13 | B13 | 3.38 ng/mL | > 1 µg/mL
14 | B14 | – | > 1 µg/mL
15 | B15 | 19 ng/mL | 0.107 µg/mL
16 | B16 | 11.1 ng/mL | –
17 | B17 | 1.16 ng/mL | –
18 | B18 | 1.77 ng/mL | –
19 | B19 | 1.63 ng/mL | –
20 | B20 | 1.18 ng/mL | –
21 | B21 | 1.79 ng/mL | –
22 | B22 | > 1000 ng/mL | > 1 µg/mL
23 | B23 | 64.1 ng/mL | –
